Data taken from PMC7321962.

Assays:
[1] = target: T1, XPG FF67,68AA (Homo sapiens, UniProt P28715 1-1186, F67A;F68A); test: EMSA
T1 sequence: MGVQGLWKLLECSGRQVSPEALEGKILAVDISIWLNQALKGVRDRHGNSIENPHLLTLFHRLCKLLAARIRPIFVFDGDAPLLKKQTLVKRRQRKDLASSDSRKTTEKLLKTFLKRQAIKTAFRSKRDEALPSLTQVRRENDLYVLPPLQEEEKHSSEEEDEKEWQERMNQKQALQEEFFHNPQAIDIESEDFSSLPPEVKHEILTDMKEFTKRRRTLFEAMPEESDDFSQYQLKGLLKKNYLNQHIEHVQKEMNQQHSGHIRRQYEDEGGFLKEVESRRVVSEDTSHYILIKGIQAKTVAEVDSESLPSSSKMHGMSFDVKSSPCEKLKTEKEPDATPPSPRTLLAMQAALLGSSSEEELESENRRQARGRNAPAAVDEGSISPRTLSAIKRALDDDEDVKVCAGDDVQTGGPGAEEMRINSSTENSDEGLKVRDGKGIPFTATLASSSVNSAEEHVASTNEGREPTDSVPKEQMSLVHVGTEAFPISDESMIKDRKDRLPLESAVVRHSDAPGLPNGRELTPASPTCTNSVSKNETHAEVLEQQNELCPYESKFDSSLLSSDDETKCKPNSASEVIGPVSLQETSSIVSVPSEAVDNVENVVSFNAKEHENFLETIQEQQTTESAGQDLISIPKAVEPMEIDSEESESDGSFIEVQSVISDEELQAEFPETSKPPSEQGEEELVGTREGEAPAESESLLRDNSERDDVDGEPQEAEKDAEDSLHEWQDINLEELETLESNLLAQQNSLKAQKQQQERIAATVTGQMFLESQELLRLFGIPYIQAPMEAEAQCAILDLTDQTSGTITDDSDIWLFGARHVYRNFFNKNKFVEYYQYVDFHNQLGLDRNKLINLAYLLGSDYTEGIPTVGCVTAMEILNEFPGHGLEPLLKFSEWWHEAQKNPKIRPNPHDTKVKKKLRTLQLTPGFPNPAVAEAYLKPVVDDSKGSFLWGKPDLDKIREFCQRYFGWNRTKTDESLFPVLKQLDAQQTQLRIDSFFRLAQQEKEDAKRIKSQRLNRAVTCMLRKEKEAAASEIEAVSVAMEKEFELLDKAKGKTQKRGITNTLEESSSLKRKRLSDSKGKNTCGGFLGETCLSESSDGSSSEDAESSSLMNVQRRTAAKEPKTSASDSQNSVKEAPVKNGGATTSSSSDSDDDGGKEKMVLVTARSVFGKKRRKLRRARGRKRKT

[2] = target: T2, XPG-FLAG (full-length WT) (Homo sapiens, UniProt P28715 1-1186); test: EMSA
T2 sequence: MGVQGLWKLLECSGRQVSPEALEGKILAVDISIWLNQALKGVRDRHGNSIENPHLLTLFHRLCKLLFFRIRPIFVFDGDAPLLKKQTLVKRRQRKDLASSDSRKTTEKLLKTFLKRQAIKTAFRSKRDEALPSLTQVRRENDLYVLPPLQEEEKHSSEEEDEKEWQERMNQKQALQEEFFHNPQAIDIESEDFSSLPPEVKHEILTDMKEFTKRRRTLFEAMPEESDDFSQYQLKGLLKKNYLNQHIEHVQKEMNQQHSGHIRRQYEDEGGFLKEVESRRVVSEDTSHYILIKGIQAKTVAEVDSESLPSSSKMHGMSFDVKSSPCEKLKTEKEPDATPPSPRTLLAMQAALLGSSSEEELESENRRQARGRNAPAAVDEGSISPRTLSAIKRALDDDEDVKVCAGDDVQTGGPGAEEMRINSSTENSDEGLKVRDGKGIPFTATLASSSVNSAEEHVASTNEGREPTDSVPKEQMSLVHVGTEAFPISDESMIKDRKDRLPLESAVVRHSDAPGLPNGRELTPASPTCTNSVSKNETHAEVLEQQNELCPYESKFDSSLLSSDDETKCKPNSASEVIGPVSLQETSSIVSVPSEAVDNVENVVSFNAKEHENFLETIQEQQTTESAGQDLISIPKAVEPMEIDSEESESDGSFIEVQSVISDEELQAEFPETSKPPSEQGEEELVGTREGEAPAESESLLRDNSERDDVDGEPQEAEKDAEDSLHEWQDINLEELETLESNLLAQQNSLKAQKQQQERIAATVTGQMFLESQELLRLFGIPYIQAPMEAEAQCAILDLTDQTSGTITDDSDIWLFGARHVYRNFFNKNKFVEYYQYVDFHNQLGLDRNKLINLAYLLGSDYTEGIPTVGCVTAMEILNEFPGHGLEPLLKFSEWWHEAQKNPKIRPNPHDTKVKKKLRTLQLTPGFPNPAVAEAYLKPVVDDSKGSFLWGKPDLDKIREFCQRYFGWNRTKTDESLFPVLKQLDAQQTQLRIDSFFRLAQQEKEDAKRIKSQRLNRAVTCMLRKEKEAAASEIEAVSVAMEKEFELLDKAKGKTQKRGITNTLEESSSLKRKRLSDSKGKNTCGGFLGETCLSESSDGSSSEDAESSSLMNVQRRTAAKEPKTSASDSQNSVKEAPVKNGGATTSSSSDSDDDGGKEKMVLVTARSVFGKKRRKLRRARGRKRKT

B1: HP15T/C 15-nt bubble DNA (mixed)
DNA 1: CGCGAAGCGGGGCAGACAACGTGGCGCTGTTTTTTTTTTTTTTTGTGTCCTAGCACAGCGTATG
DNA 2: CGCGAAGCGCATACGCTGTGCTAGGACACCCCCCCCCCCCCCCCCAGCGCCACGTTGTCTGCCC
B1: binds [1]; binds [2].
